Assays:
T3 SAMase = T3 SAMase (Enterobacteria phage T3, UniProt P07693); conditions: 2 mM SAM, 50 mM NaPi pH 7.4, 25°C
[1] = biological target: His6-tagged Svi3-3_d19 (environmental phage); assay: SEC; HiLoad 16/60 Superdex 75 pg, 25 mM Tris-HCl, 150 mM NaCl, pH 8.0; His-tagged protein eluted from Ni Sepharose
[2] = biological target: His6-tagged Svi3-3_d19 (environmental phage); assay: SEC-SAXS; His6-tagged Svi3-3_d19 at 10-13 mg/ml with and without 5 mM SAM; Shodex KW403 column, 25 mM Tris-HCl pH 8.0, 150 mM NaCl
[3] = biological target: Svi3-3_d19 (N-terminally truncated 146 amino acid construct of SAMase Svi3-3, hexahistidine tag removed) (environmental phage); assay: crystal structure; Svi3-3_d19 (10 mg/ml) crystallised with 5 mM SAM (product MTA bound), with 5 mM SAH, or without ligand; sitting drop, 293 K, 0.4-0.6 M ammonium phosphate; space group F4(1)32, one monomer in the asymmetric unit, trimer around the threefold crystallographic axis
[4] = biological target: Svi3-3_d19 E69A (environmental phage); assay: SEC; HiLoad 16/60 Superdex 75 pg, 25 mM Tris-HCl, 150 mM NaCl, pH 8.0; His-tagged protein eluted from Ni Sepharose
[5] = biological target: Svi3-3_d19 E69Q (environmental phage); assay: as above
[6] = biological target: Svi3-3_d19 E105Q (environmental phage); assay: as above

Chain of T3 SAMase (P07693 whole entry): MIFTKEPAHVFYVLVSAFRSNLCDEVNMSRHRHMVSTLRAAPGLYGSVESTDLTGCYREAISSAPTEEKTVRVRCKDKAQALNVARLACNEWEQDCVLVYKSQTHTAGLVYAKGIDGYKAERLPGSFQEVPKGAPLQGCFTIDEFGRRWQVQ

In the case of C[S+](CC[C@H](N)C(=O)O)C[C@H]1O[C@@H](n2cnc3c(N)ncnc32)[C@H](O)[C@@H]1O (stereo partly drawn) [SAM, S-(5’-Adenosyl)-L-methionine], the “TLC of reaction products; ion exchange chromatography” value (T3 SAMase) is reported as “The same assay was performed with T3 SAMase and Orf1”.
For His6-tagged Svi3-3_d19 (enzyme), the stoichiometry N [1] was 3 and the stoichiometry N [2] was 3.
In the case of “Svi3-3_d19 (N-terminally truncated 146 amino acid construct of SAMase Svi3-3, hexahistidine tag removed) (enzyme)”, the stoichiometry N [3] is reported as 3.
In the case of Svi3-3_d19 E69A (enzyme), the stoichiometry N [4] is reported as 3.
With Svi3-3_d19 E69Q (enzyme) the stoichiometry N [5] was 3.
Work on Svi3-3_d19 E105Q (enzyme) yielded a stoichiometry N [6] of 3.

Reference: PMC7877911 (eLife, 2021)
